Source: US20250276077A1 (IMMUNOME, published 2025)
Where a chain is given by its changes, count along the chain named.

B1: AB-010358 (antibody, mouse IgG2a, V domains shown)
VH: QVQLQQWGAGLLKPSETLSLTCAVYGGSFSDYYWSWIRQPPGKGLEWIGEINHRGSINYNNYNPSLKSRVTISVDTSKNQFSLKLSSVTAADTAVYYCAKPLRPHCTNGVCYSGDAFDIWGQGTMVTVAS
VL: SYVLTQPPSVSVAPGQTARITCGGNNIGSKNVHWYQQKPGQAPVLVVYDDSDRPSGIPERFSGSNSGNTATLTISRVEAGDEADYYCQVWDSSSDHLVFGGGTKLTVL
B2: AB-010359 (antibody, V domains shown)
VH: B1 VH
VL: B1 VL with L97V
B3: AB-010360 (antibody, mouse IgG2a, V domains shown)
VH: B1 VH with D31G
VL: B1 VL with R60Q
B4: AB-010362 (antibody, mouse IgG2a, V domains shown)
VH: B1 VH with D31G
VL: B1 VL
B5: AB-010364 (antibody, mouse IgG2a, V domains shown)
VH: B1 VH with D31G, R54A
VL: B1 VL with R60Q, L97V
B6: AB-010365 (antibody, V domains shown)
VH: B1 VH with D31G, R54A
VL: B1 VL with L97V
B7: AB-010366 (antibody, mouse IgG2a, V domains shown)
VH: B1 VH with D31G, R54Q
VL: B1 VL with R60Q, L97V
B8: AB-010367 (antibody, V domains shown)
VH: B1 VH with D31G, R54Q
VL: B1 VL with L97V
B9: AB-009812 (antibody, mouse IgG2a, V domains shown)
VH: B1 VH with I51V, R54S, T76P, S86T
VL: B1 VL with R60Q
B10: AB-009813 (antibody, mouse IgG2a, V domains shown)
VH: B1 VH with I51V, R54A, T76P, S86T
VL: B1 VL with R60Q
B11: AB-009816 (antibody, mouse IgG2a, V domains shown)
VH: B1 VH with I51V, T76A, S86T
VL: B1 VL with R60Q
B12: AB-009817 (antibody, mouse IgG2a, V domains shown)
VH: B1 VH with I51V, T76P, S86T, G109A
VL: B1 VL with R60Q
B13: AB-009814 (antibody, mouse IgG2a, V domains shown)
VH: QVQLQQWGAGLLKPSETLSLTCAVYGGSFSDYYWSWIRQPPGKGLEWIGEVNHRGSINYNPSLKSRVTISVDPSKNQFSLKLTSVTAADTAVYYCAKPLRPHCTNGVCYSGDAFDIWGQGTMVTVAS
VL: B1 VL with R60Q
B14: AB-009808 (antibody, mouse IgG2a, V domains shown)
VH: B13 VH with V51I, R54S, I57T, L99F, A126S
VL: B1 VL with R60Q
B15: AB-009805 (antibody, mouse IgG2a, V domains shown)
VH: QVQLQQWGAGLLKPSETLSLTCAVYGGSLSDYHWSWIRQPPGKGLEWIGEINHSGSTNYNPSLKSRVTISVDTSKNQFSLKLSSVSAADTAVYYCAKPFRPHCTNGVCHSGDAFDIWGQGTMATVSS
VL: B1 VL with R60Q
B16: AB-009806 (antibody, mouse IgG2a, V domains shown)
VH: B13 VH with V51I, R54S, I57T, L99F, A126S
VL: B1 VL with S29T, R60Q
B17: AB-010683 (antibody, V domains shown)
VH: B1 VH with D31G
VL: B1 VL with K30M, R60Q, S92H, L97V
B18: AB-010684 (antibody, V domains shown)
VH: B1 VH with D31G, T107I
VL: B1 VL with R60Q, S92H, L97V
B19: AB-010685 (antibody, V domains shown)
VH: B1 VH with D31G, T107I
VL: B1 VL with S29Y, R60Q, S92H, L97V
B20: AB-010686 (antibody, V domains shown)
VH: B1 VH with D31G
VL: B1 VL with R60Q, S93R, L97V
B21: AB-010687 (antibody, V domains shown)
VH: B1 VH with D31G
VL: B1 VL with R60Q, S93E, L97V
B22: AB-010688 (antibody, V domains shown)
VH: B1 VH with D31G
VL: B1 VL with S29Y, R60Q, S93E, L97V
B23: AB-010689 (antibody, V domains shown)
VH: B1 VH with D31G, T107I
VL: B1 VL with G23R, L97V
B24: AB-010690 (antibody, V domains shown)
VH: B1 VH with D31G
VL: B1 VL with G23R, S29Y, L97V
B25: AB-010691 (antibody, V domains shown)
VH: B1 VH with D31G
VL: B1 VL with G23R, K30M, L97V
B26: AB-010692 (antibody, V domains shown)
VH: B1 VH with D31G
VL: B1 VL with G23R, S92H, L97V
B27: AB-010143 (antibody, mouse IgG2a, V domains shown)
VH: B1 VH with I51V, S86T
VL: B1 VL with R60Q, L97V
B28: AB-010144 (antibody, mouse IgG2a, V domains shown)
VH: B1 VH with S86T
VL: B1 VL with R60Q
B29: AB-010145 (antibody, mouse IgG2a, V domains shown)
VH: B1 VH with I51V
VL: B1 VL with R60Q
B30: AB-010146 (antibody, mouse IgG2a, V domains shown)
VH: B1 VH with I51V, S86T, A129S
VL: B1 VL with R60Q
B31: AB-010147 (antibody, mouse IgG2a, V domains shown)
VH: B1 VH with I51V, S86T
VL: B1 VL
B32: AB-010148 (antibody, mouse IgG2a, V domains shown)
VH: B1 VH
VL: B1 VL with R60Q
B33: AB-010150 (antibody, mouse IgG2a, V domains shown)
VH: B1 VH with I51V, A129S
VL: B1 VL with R60Q
B34: AB-010151 (antibody, mouse IgG2a, V domains shown)
VH: B1 VH with A129S
VL: B1 VL with R60Q
B35: AB-010141 (antibody, mouse IgG2a, V domains shown)
VH: B1 VH with D31G, I51V, S86T
VL: B1 VL with R60Q

Biological target: T1, Human EphA2 (ephrin receptor A2) on cells (human, UniProt P29317 25-976)
T1 sequence (P29317 25-976): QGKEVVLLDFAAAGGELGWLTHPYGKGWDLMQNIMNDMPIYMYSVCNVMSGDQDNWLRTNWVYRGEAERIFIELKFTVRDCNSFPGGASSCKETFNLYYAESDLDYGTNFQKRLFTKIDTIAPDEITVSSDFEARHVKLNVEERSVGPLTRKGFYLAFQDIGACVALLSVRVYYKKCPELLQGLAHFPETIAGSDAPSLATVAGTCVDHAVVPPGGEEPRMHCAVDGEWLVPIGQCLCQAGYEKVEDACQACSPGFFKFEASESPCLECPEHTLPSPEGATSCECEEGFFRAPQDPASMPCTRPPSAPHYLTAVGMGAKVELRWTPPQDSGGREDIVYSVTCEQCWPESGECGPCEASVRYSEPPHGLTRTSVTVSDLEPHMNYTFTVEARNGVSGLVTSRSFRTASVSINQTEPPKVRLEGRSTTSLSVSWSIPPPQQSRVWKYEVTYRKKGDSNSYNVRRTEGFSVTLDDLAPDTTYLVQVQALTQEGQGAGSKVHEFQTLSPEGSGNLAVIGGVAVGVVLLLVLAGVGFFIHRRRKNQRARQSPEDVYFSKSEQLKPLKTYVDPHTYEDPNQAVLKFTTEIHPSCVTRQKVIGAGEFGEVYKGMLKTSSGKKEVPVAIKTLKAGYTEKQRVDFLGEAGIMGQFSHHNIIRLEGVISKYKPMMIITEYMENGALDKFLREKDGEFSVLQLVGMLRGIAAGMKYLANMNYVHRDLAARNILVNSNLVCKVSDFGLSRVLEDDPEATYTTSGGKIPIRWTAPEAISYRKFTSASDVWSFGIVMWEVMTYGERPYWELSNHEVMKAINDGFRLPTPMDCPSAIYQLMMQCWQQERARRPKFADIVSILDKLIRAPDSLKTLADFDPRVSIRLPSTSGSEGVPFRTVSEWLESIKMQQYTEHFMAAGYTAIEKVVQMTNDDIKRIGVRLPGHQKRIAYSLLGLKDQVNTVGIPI
Experiment: cell-based or functional assay

| Binder | ADCC EC50 | ADCC Fold-improved (against AB-008873) |
| --- | --- | --- |
| B1 | 73.3 nM | 0.47 fold |
| B2 | 25.3 nM | 1.38 fold |
| B3 | 4.3 nM | 8.09 fold |
| B4 | 12.8 nM | 2.72 fold |
| B5 | 14.5 nM | 2.4 fold |
| B6 | 34.6 nM | 1.01 fold |
| B7 | 28.9 nM | 1.2 fold |
| B8 | 42.7 nM | 0.81 fold |

Biological target: T1, Human EphA2 (ephrin receptor A2) on …
Experiment: flow cytometry on A549 cells
Experimental: (§1) Surface binding of the antibodies to in vitro grown cell lines was assessed by flow cytometry. Tumor cells were detached from their culture plate using Versene and counted. Cells were staining in BSA-containing buffer with primary antibody for 30 minutes at 4° C. with shaking. Following, cells were washed and stained with secondary PE-labeled antibody for 30 minutes at 4° C. with shaking. Before analysis on an Intellicyt iQue3 scanner, cells were counterstained with DAPI. MedFI values from live, single cells was expressed as fold over isotype control.

| Binder | EC50 | Flow Delta | binding result |
| --- | --- | --- | --- |
| B9 | 9.6 nM | 568000 |  |
| B10 | 6.8 nM | 578000 |  |
| B11 | 5.5 nM | 670000 |  |
| B12 |  | 0 | no binding (tested: tested up to 1 µM) |
| B13 | 11.5 nM | 407000 |  |

Biological target: T1, Human EphA2 (ephrin receptor A2) on …
Experiment: cell-based or functional assay
Remark: another data set of the same source

| Binder | ADCC Delta activity (%), A549 | ADCP Delta activity (%), A549 |
| --- | --- | --- |
| B14 | 1.31% | 12.8% |
| B15 | 5.06% | 17.3% |
| B16 | 14.5% | 17.9% |

Biological target: T1, Human EphA2 (ephrin receptor A2) on …
Experiment: flow cytometry, A549 cells
Experimental: as §1

| Binder | Flow Delta activity (MedFI) | EC50 (read off the curve) |
| --- | --- | --- |
| B14 | 29500 MedFI |  |
| B15 | 75100 MedFI |  |
| B16 | 231000 MedFI | ~20 nM |

Biological target: T1, Human EphA2 (ephrin receptor A2) on …
Experiment: cell-based or functional assay
Remark: another data set of the same source

| Binder | ADCC - EC50 (nM), Trial 1, A549 | ADCC - EC50 (nM), Trial 2, A549 |
| --- | --- | --- |
| B17 | ~0.14 nM | 0.046 nM |
| B18 | ~0.14 nM | 0.048 nM |
| B19 | < 0.03 nM | 0.0057 nM |
| B20 | 6.4 nM |  |
| B21 | 2.8 nM |  |
| B22 | ~0.052 nM | 0.032 nM |
| B23 | 2.5 nM |  |
| B24 | 0.19 nM |  |
| B25 | 2.2 nM |  |
| B26 | 0.21 nM |  |

Biological target: T1, Human EphA2 (ephrin receptor A2) on …
Experiment: cell-based or functional assay
Remark: another data set of the same source

| Binder | ADCC EC50 |
| --- | --- |
| B27 | 25.1 nM |
| B28 | 35.8 nM |
| B29 | 48.9 nM |
| B30 | 66.8 nM |
| B31 | 79.4 nM |
| B32 | 45 nM |
| B33 | 65.9 nM |
| B34 | 33.3 nM |
| B35 | 4.6 nM |

Biological target: T1, Human EphA2 (ephrin receptor A2) on …
Experiment: cell-based or functional assay
Remark: another data set of the same source

| Binder | ADCC Delta, A549 cells | ADCC EC50 (nM), A549 cells |
| --- | --- | --- |
| B9 | 41.1 | 51 nM |
| B10 | 39.9 | 26 nM |
| B11 | 58 | 12.5 nM |
| B12 | 0 |  |
| B13 | 36 | 62.8 nM |
